To fix the notation:
T1: integrin αvβ3 on β3-CHO cells (recombinant hamster αv/human β3 hybrid), P05106
T1 chain: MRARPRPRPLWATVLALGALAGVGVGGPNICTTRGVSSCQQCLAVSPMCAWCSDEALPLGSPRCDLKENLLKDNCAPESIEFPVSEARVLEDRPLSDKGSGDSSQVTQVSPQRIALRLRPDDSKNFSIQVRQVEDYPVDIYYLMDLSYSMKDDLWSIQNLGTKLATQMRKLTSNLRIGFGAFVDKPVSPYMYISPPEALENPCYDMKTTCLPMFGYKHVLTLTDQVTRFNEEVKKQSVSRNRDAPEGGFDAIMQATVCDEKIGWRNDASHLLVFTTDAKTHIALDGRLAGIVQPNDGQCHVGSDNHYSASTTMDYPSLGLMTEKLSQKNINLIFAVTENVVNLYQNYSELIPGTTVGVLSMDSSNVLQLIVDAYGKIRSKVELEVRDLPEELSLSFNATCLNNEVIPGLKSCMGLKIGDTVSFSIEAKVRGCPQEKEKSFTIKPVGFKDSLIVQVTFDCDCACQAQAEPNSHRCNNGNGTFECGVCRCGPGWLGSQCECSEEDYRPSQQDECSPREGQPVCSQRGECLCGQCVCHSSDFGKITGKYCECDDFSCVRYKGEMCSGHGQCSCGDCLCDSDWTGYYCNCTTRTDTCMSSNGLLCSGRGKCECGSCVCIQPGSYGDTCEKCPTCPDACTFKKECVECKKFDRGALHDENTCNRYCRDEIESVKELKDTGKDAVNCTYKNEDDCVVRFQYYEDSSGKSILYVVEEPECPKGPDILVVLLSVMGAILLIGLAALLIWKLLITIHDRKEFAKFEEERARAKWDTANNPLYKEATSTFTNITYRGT

B1: WT IGF2 (insulin-like growth factor-2) R24E; R34E; R37E; R38E (protein)
chain: AYRPSETLCGGELVDTLQFVCGDEGFYFSRPASEVSEESRGIVEECCFRSCDLALLETYCATPAKSE
B2: WT IGF2 (insulin-like growth factor-2) R34E; R37E; R38E (protein)
chain: B1 chain with E24R
B3: WT IGF2 (insulin-like growth factor-2) R30E; R37E; R38E (protein)
chain: B1 chain with E24R, R30E, E34R
B4: WT IGF2 (insulin-like growth factor-2) R24E; R37E; R38E (protein)
chain: B1 chain with E34R

Residue numbers refer to the chain shown, from its start. Numbers in names are those of the source.

The target in one assay is T1, integrin αvβ3 on β3-CHO cells …. The assay can be described thus: cell adhesion assay (β3-CHO cells on coated IGF2). The note with it: chain shown with the change; 10 µg/ml IGF2; Tyrode-HEPES buffer, 1 mM Mg2+; parent: est. 43; read off a plot.
On to B1, for which the response came out at 15 % Adhesion.

Regarding B2, the response turned out to be 15 % Adhesion.

For the molecule B3, the response was found to be 25 % Adhesion.

For the molecule B4, the response was found to be 16 % Adhesion.

Staying with this assay, now noted: chain shown with the change; IGF2 coating 5 µg/ml; Tyrode-HEPES buffer, 1 mM Mg2+; parent: est. 30; read off a plot.
B2: the response is 6.5 % Adhesion.

As to B3, the response was 20 % Adhesion.

Regarding B4, the response amounted to 9.5 % Adhesion.

Still in this assay, the particulars now being: chain shown with the change; IGF2 coating 10 µg/ml; Tyrode-HEPES buffer, 1 mM Mg2+; parent: est. 43; read off a plot.
Take B2: the response was found to be 16 % Adhesion.

With B3, the response was determined as 25 % Adhesion.

With B4, the response was 16 % Adhesion.

Still in this assay, the particulars now being: chain shown with the change; IGF2 coating 20 µg/ml; Tyrode-HEPES buffer, 1 mM Mg2+; parent: est. 56; read off a plot.
With B2, the response was 15 % Adhesion.

Turning to B3, the response was determined as 36 % Adhesion.

B4: the response was 17 % Adhesion.

The record behind these values is PMC5584928.
